Data set [1] concerns the molecule itself. Briefly: proteoliposome docking assay (co-isolation of liposomes on streptavidin beads); biotin-labeled Sey1p proteoliposomes held on streptavidin magnetic beads and Rh-labeled Sey1p proteoliposomes (500 uM lipid each) in RB500 with 2 mM MgCl2 and 1 mM GTP, 30 °C, 30 min; Rh fluorescence of co-isolated liposomes; complete ER-mimicking lipids and four lipid subsets (Table 1).

Data set [2] concerns the molecule itself. Briefly: pull-down; GST-Sey1p and His6-Sey1p, 4 uM each, mixed in RB150 (20 mM Hepes-NaOH pH 7.4, 150 mM NaCl, 10% glycerol) with 0.4% Triton X-100, 2 mM MgCl2 and 1 mM GTP, 4 °C; GST-Sey1p isolated on glutathione-Sepharose 4B; SDS-PAGE, Coomassie Blue.

B1: untagged full-length Sey1p reconstituted into proteoliposomes (natural protein, S. cerevisiae)
chain: GPGMADRPAIQLIDEEKEFHQSALQYFQQCIGNRDVGLDYHVISVFGSQSSGKSTLLNVLFNTNFDTMDAQVKRQQTTKGIWLAHTKQVNTTIEIDNDRPDIFVLDVEGSDGSERGEDQDFERKAALFAIAVSEVLIVNMWEQQIGLYQGNNMALLKTVFEVNLSLFGKNDNDHKVLLLFVIRDHVGVTPLSSLSDSVTRELEKIWTELSKPAGCEGSSLYDYFDLKFVGLAHKLLQEDKFTQDVKKLGDSFVMKGTENYYFKPQYHHRLPLDGWTMYAENCWDQIERNKDLDLPTQQILVARFKTEEISNEALEEFISKYDESIAPLKGNLGSLTSQLVKLKEECLTKYDEQASRYARNVYMEKREALNTKLNSHISGTINEFLESLMEKLWDDLKLEVSSRDKATTSFVESVAAGKSKIEKEFNESMETFKKLGLLISNEEITCKFSDDIEERIKQLRDAELKAKIGRIKKNLVPELKDHVIHLLSHPSKKVWDDIMNDFESTIKDNISAYQVEKDKYDFKIGLSESENAKIYKNIRILAWRTLDTTVHDYLKIDTIVSILRDRFEDVFRYDAEGSPRLWKTEEEIDGAFRVAKEHALEVFEVLSLAVTSDNVEIIPDVPMAEEESGEDNEIYRDNEGVFHSRRFAHILTELQKENVLDQFRRQINITVLDSKRSIITTRTHIPPWIYVLLAVLGWNEFVAVIRNPLFVTLTLILGATFFVIHKFGLWGPVVNVVQSAVGETRTAIKDKLRQFVVEDHEVKESFEMKDFSKNEQKEK
notes: three extra N-terminal residues (Gly-Pro-Gly) left after 3C protease cleavage, printed in three-letter code; Inserted by its two C-terminal transmembrane domains into liposomes; Protein-to-lipid ratio 1/500 (mol/mol); also called untagged form of Sey1p; Sey1p proteoliposomes; not shown: His6, N-terminal, cleaved
Take B1: in data set [1], the binding result is recorded as “binds”.

B2: Sey1p (tagged full-length recombinant Sey1p: GST-His6-3C-Sey1p and His6-3C-Sey1p) (natural protein, S. cerevisiae, UniProt Q99287 1-776, looked up)
chain: MADRPAIQLIDEEKEFHQSALQYFQQCIGNRDVGLDYHVISVFGSQSSGKSTLLNVLFNTNFDTMDAQVKRQQTTKGIWLAHTKQVNTTIEIDNDRPDIFVLDVEGSDGSERGEDQDFERKAALFAIAVSEVLIVNMWEQQIGLYQGNNMALLKTVFEVNLSLFGKNDNDHKVLLLFVIRDHVGVTPLSSLSDSVTRELEKIWTELSKPAGCEGSSLYDYFDLKFVGLAHKLLQEDKFTQDVKKLGDSFVMKGTENYYFKPQYHHRLPLDGWTMYAENCWDQIERNKDLDLPTQQILVARFKTEEISNEALEEFISKYDESIAPLKGNLGSLTSQLVKLKEECLTKYDEQASRYARNVYMEKREALNTKLNSHISGTINEFLESLMEKLWDDLKLEVSSRDKATTSFVESVAAGKSKIEKEFNESMETFKKLGLLISNEEITCKFSDDIEERIKQLRDAELKAKIGRIKKNLVPELKDHVIHLLSHPSKKVWDDIMNDFESTIKDNISAYQVEKDKYDFKIGLSESENAKIYKNIRILAWRTLDTTVHDYLKIDTIVSILRDRFEDVFRYDAEGSPRLWKTEEEIDGAFRVAKEHALEVFEVLSLAVTSDNVEIIPDVPMAEEESGEDNEIYRDNEGVFHSRRFAHILTELQKENVLDQFRRQINITVLDSKRSIITTRTHIPPWIYVLLAVLGWNEFVAVIRNPLFVTLTLILGATFFVIHKFGLWGPVVNVVQSAVGETRTAIKDKLRQFVVEDHEVKESFEMKDFSKNEQKEK
notes: The bait copy is GST-His6-3C-Sey1p (pET-41 Ek/LIC) and the prey copy is His6-3C-Sey1p (pET-30 Ek/LIC); GST is on the bait copy only; The tags were not cleaved in the pull-down; also called GST-Sey1p; His6-Sey1p; source: E. coli Rosetta 2(DE3)pLysS, purified (COSMOGEL His-Accept beads, imidazole elution, dialysis; in 0.4% Triton X-100); not shown: His6, N-terminal, kept; GST, N-terminal, kept
In the case of B2, the binding result in data set [2] is reported as “binds”.

For the origin of these results see article PMC4738300, “Physiological lipid composition is vital for homotypic ER membrane fusion mediated by the dynamin-related GTPase Sey1p” (Scientific Reports, 2016).
